{"source": "patent US8357523B2", "about": "“Beta-glucosidase variant enzymes and related polynucleotides” (Codexis, Inc., priority 2009, dated 2013)"}
{"test": "High throughput cellobiose assay: fold improvement in cellobiase activity of CelA variants over a control enzyme (Tables 2A-2D, 3, 5, 6, 7)", "type": "biochemical", "details": "3.3 g/l cellobiose, 55° C. and pH 5.3 (incubation overnight)"}
{"molecule": "213 (protein) STAIAQEGAGPAAILHPEKWPRPATQRLIDPAVEKRVDALLKQLSVEEKVGQVIQGDIGTITPEDLRKYPLGSILAGGDSGPNGDDRAPPKEWLDLADAFYRVSLEKRPGHTPIPVLFGIDAVHGHGNIGSATIFPHNIALGMTRDPELLRRIGEVTAEEMAATGIDWTFAPALSVVRDDRWGRTYEGFSEDPEIVASYSAAIVEGVQGKYGSKDFMAPGRIVASAKHFLADGGTDQGRDQGDARISEDELIRIHNAGYPPAIDAGVLTVMASFSSWQGIKHHGHKQLLTDVLKGQMGFNGFIVGDWNAHDQVPGCTKFNCPTSLIAGLDMYMAADSWKQLYENTLAQVKDGTIPMARLDDAVRRILRVKVLAGLFEKPAPKDRPGLPGLETLGSPEHRAVGREAVRKSLVLLKNDKGTLPLSPKARVLVAGDGADNIGKQSGGWTISWQGTGNRNDEFPGATSILGGIRDAVADAGGSVEFDVAGQYKTKPDVAIVVFGEEPYAEFQGDVETLEYQPDQKQDLALLKKLKDQGIPVVAVFLSGRPMWVNPELNASDAFVAAWLPGTEGGGVADVLFTDKAGKVQHDFAGKLSYSWPRTAAQTTVNRGDADYNPLFAYGYGLTYKDKSKVGTLPEESGVP", "Fold improvement over Control Variant No. 94 from Table 2B": "++++ (++++ = 1.1 to 1.5 fold improvement over Control No. 3, Variant No. 94)"}
{"test": "High throughput cellobiose assay: fold improvement in cellobiase activity of CelA variants over a control enzyme (Tables 2A-2D, 3, 5, 6, 7)", "type": "biochemical", "details": "3.3 g/l cellobiose, 55° C. and pH 6.0"}
{"molecule": "133 (protein) STAIAQEGAAPAAILHPEKWPRPATQRLIDPAVEKRVDALLKQLSVEEKVGQVIQGDIGTITPEDLRKYPLGSILAGGDSGPNGDDRAPPKEWLDLADAFYRVSLEKRPGHTPIPVLFGIDAVHGHGKIGSATILPHNIALGMTRDPELLRRIGEVTAVEMTATGIDWTFAPCLSVVRDDRWGRTYEGFSEDPEIVASYSAAIVEGVQGKFGSKDFMAVGRIVASAKHFLADGGTDQGRDQGDARISEDELIRIHNAGYPPAIDAGVLTVMASFSSWQGIKHHGHKQLLTDVLKGQMGFNGFIVGDWNAHDQVPGCTKFNCPTSLIAGLDMYMAADSWKQLYENTLAQVKDGTIPMARLDDAVRRILRVKVLAGLFEKPAPKDRPGLPGLETLGSPEHRAVGREAVRKSLVLLKNDKGTLPLSPKARVLVAGDGADNIGKQSGGWTISWQGTGNRNDEFPGATSILGGIRDAVADAGGSVEFDVAGQYKTKPDVAIVVFGEEPYAEFQGDVETLEYQPDQKQDLALLKKLKDQGIPVVAVFLSGRPMWVNPELNASDAFVAAWLPGTEGGGVADVLFTDKAGKVQHDFAGKLSYSWPRTAAQTTVNRGDADYNPLFAYGYGLTYKDKSKVGTLPEESGVPAEARQNAGIYFRAGALRLPGRFL", "Fold improvement over Control Variant No. 5 from Table 2A": "++ (++ = 1.1 to 6 fold improvement over control Variant No. 2)"}
{"molecule": "127 (protein) STAIAQEGAAPAAILHPEKWPRPATQRLIDPAVEKRVDALLKQLSVEEKVGQVIQGDIGTITPEDLRKYPLGSILAGGDSGPNGDDRAPPKEWLDLADAFYRVSLEKRPGHTPIPVLFGIDAVHGHGNIGSATIFPHNIALGATRSPELLRRIGEVTAVEMAATGIDWTFAPALSVVRDDRWGRTYEGFSEDPEIVAAYSPAIVEGVQGKYGSKDFMAPGRSVACAKHFLADGGTDQGRDQGDARISEDELIRIHNAGYPPAIDAGVLTVMASFSSWQGIKHHGHKQLLTDVLKGQMGFNGFIVGDWNAHDQVPGCTKFNCPTSLIAGLDMYMAADSWKQLYENTLAQVKDGTIPMARLDDAVRRILRVKVLAGLFEKPAPKDRPGLPGLETLGSPEHRAVGREAVRKSLVLLKNDKGTLPLSPKARVLVAGDGADNIGKQSGGWTISWQGTGNRNDEFPGATSILGGIRDAVADAGGSVEFDVAGQYKTKPDVAIVVFGEEPYAEFQGDVETLEYQPDQKQDLALLKKLKDQGIPVVAVFLSGRPMWVNPELNASDAFVAAWLPGTEGGGVADVLFTDKAGKVQHDFAGKLSYSWPRTAAQTTVNRGDADYNPLFAYGYGLTYKDKSKVGTLPEESGVPAEARQNAGIYFRAGALRLPGRFL", "Fold improvement over Control Variant No. 5 from Table 2A": "+++ (+++ = 6 to 13 fold improvement over control Variant No. 2)"}
{"molecule": "132 (protein) STAIAQEGAAPAAILHPEKWPRPATQRLIDPAVEKRVDALLKQLSVEEKVGQVIQGDIGTITPEDLRKYPLGSILAGGDSGPNGDDRAPPQEWLDLADAFYRVSLEKRPGHTPIPVLFGIDAVHGHGKIGSATIFPHNIALGATRSPELLRRIGEVTAVEMAATGIDWTFAPALSVVRDDRWGRTYEGFSEDPEIVAAYSPAIVEGVQGKYGSKDFMAPGRAVACAKHFLADGGTDQGRDQGDARISEDELIRIHNAGYPPAIDAGVLTVMASFSSWQGIKHHGHKQLLTDVLKGQMGFNGFIVGDWNAHDQVPGCTKFNCPTSLIAGLDMYMAADSWKQLYENTLAQVKDGTIPMARLDDAVRRILRVKVLAGLFEKPAPKDRPGLPGLETLGSPEHRAVGREAVRKSLVLLKNDKGTLPLSPKARVLVAGDGADNIGKQSGGWTISWQGTGNRNDEFPGATSILGGIRDAVADAGGSVEFDVAGQYKTKPDVAIVVFGEEPYAEFQGDVETLEYQPDQKQDLALLKKLKDQGIPVVAVFLSGRPMWVNPELNASDAFVAAWLPGTEGGGVADVLFTDKAGKVQHDFAGKLSYSWPRTAAQTTVNRGDADYNPLFAYGYGLTYKDKSKVGTLPEESGVPAEARQNAGIYFRAGALRLPGRFL", "Fold improvement over Control Variant No. 5 from Table 2A": "+++ (+++ = 6 to 13 fold improvement over control Variant No. 2)"}
{"molecule": "130 (protein) STAIAQEGAAPAAILHPEKWPRPVTQRLIDPAVEKRVDALLKQLSVEEKVGQVIQGDIGTITPEDLRKYPLGSILAGGNSGPNGDDRAPPKEWLDLADAFYRVSLEKRPGHTPIPVLFGIDAVHGHGNIGSATIFPHNIALGMTRDPELLRRIGEVTAEEMAATGIDWTFAPALSVVRDDRWGRTYEGFSEDPEIVAAYSPAIVEGVQGKYGSKDFMAPGRSVACAKHFLADGGTDQGRDQGDARISEDELIRIHNAGYPPAIDAGVLTVMASFSSWQGIKHHGHKQLLTDVLKGQMGFNGFIVGDWNAHDQVPGCTKFNCPTSLIAGLDMYMAADSWKQLYENTLAQVKDGTIPMARLDDAVRRILRVKVLAGLFEKPAPKDRPGLPGLETLGSPEHRAVGREAVRKSLVLLKNDKGTLPLSPKARVLVAGDGADNIGKQSGGWTISWQGTGNRNDEFPGATSILGGIRDAVADAGGSVEFDVAGQYKTKPDVAIVVFGEEPYAEFQGDVETLEYQPDQKQDLALLKKLKDQGIPVVAVFLSGRPMWVNPELNASDAFVAAWLPGTEGGGVADVLFTDKAGKVQHDFAGKLSYSWPRTAAQTTVNRGDADYNPLFAYGYGLTYKDKSKVGTLPEESGVPAEARQNAGIYFRAGALRLPGRFL", "Fold improvement over Control Variant No. 5 from Table 2A": "+++ (+++ = 6 to 13 fold improvement over control Variant No. 2)"}
{"molecule": "128 (protein) STAIAQEGAAPAAILHPEKWPRPATQRLIDPAVEKRVDALLKQLSVEEKVGQVIQGDIGTITPEDLRKYPLGSILAGGDSGPNGDDRAPPKEWLDLADAFYRVSLEKRPGHTPIPVLFGIDAVHGHGKIGSATIFPHNIALGMTRDPELLRRIGEVTAEEMAATGIDWTFAPALSVVRDDRWGRTYEGFSEDPEIVAAYSPAIVEGVQGKYGSKDFMAPGRIVACAKHFLADGGTDQGRDQGDARISEDELIRIHNAGYPPAIDAGVLTVMASFSSWQGIKHHGHKQLLTDVLKGQMGFNGFIVGDWNAHDQVPGCTKFNCPTSLIAGLDMYMAADSWKQLYENTLAQVKDGTIPMARLDDAVRRILRVKVLAGLFEKPAPKDRPGLPGLETLGSPEHRAVGREAVRKSLVLLKNDKGTLPLSPKARVLVAGDGADNIGKQSGGWTISWQGTGNRNDEFPGATSILGGIRDAVADAGGSVEFDVAGQYKTKPDVAIVVFGEEPYAEFQGDVETLEYQPDQKQDLALLKKLKDQGIPVVAVFLSGRPMWVNPELNASDAFVAAWLPGTEGGGVADVLFTDKAGKVQHDFAGKLSYSWPRTAAQTTVNRGDADYNPLFAYGYGLTYKDKSKVGTLPEESGVPAEARQNAGIYFRAGALRLPGRFL", "Fold improvement over Control Variant No. 5 from Table 2A": "+++ (+++ = 6 to 13 fold improvement over control Variant No. 2)"}
{"molecule": "129 (protein) STAIAQEGAAPAAILHPEKWPRPATQRLIDPAVEKRVDALLKQLSVEEKVGQVIQGDIGTITPEDLRKYPLGSILAGGDSGPNGDDRAPPKEWLDLADAFYRVSLEKRPGHTPIPVLFGIDAVHGHGNIGSATIFPHNIALGATRDPELLRRIGEVTAEEMTATGIDWTFAPALSVVRDDRWGRTYEGFSEDPEIVAAYSPAIVEGVQGKFGSKDFMAPGRIVACAKHFLADGGTDQGRDQGDARISEDELIRIHNAGYPPAIDAGVLTVMASFSSWQGIKHHGHKQLLTDVLKGQMGFNGFIVGDWNAHDQVPGCTKFNCPTSLIAGLDMYMAADSWKQLYENTLAQVKDGTIPMARLDDAVRRILRVKVLAGLFEKPAPKDRPGLPGLETLGSPEHRAVGREAVRKSLVLLKNDKGTLPLSPKARVLVAGDGADNIGKQSGGWTISWQGTGNRNDEFPGATSILGGIRDAVADAGGSVEFDVAGQYKTKPDVAIVVFGEEPYAEFQGDVETLEYQPDQKQDLALLKKLKDQGVPVVAVFLSGRPMWVNPELNASDAFVAAWLPGTEGGGVADVLFTDKAGKVQHDFAGKLSYSWPRTAAQTTVNRGDADYNPLFAYGYGLTYKDKSKVGTLPEESGVPAEARQNAGIYFRAGALRLPGRFL", "Fold improvement over Control Variant No. 5 from Table 2A": "+++ (+++ = 6 to 13 fold improvement over control Variant No. 2)"}
{"molecule": "131 (protein) STAIAQEGAAPAAILHPEKWPRPATQRLIDPAVEKRVDALLKQLSVEEKVGQVIQGDIGTITPEDLRKYPLGSILAGGNSGPNGDDRAPPKEWLDLADAFYRVSLEKRPGHTPIPVLFGIDAVHGHGKIGSATIFPHNIALGATRDPELLRRIGEVTAEEMAATGIDWTFAPCLSVVRDDRWGRTYEGFSEDPEIVAAYSAAIVEGVQGKFGSKDFMAPGRIVASAKHFLADGGTDQGRDQGDARISEDELIRIHNAGYPPAIDAGVLTVMASFSSWQGIKHHGHKQLLTDVLKGQMGFNGFIVGDWNAHDQVPGCTKFNCPTSLIAGLDMYMAADSWKQLYENTLAQVKDGTIPMARLDDAVRRILRVKVLAGLFEKPAPKDRPGLPGLETLGSPEHRAVGREAVRKSLVLLKNDKGTLPLSPKARVLVAGDGADNIGKQSGGWTISWQGTGNRNDEFPGATSILGGIRDAVADAGGSVEFDVAGQYKTKPDVAIVVFGEEPYAEFQGDVETLEYQPDQKQDLALLKKLKDQGIPVVAVFLSGRPMWVNPELNASDAFVAAWLPGTEGGGVADVLFTDKAGKVQHDFAGKLSYSWPRTAAQTTVNRGDADYNPLFAYGYGLTYKDKSKVGTLPEESGVPAEARQNAGIYFRAGALRLPGRFL", "Fold improvement over Control Variant No. 5 from Table 2A": "++ (++ = 1.1 to 6 fold improvement over control Variant No. 2)"}
